Laboratory results: article PMC4338043 (PLoS ONE, 2015)

How the values were obtained:
SEC = molecular target: the molecule itself; experiment: SEC
AUC [1] = molecular target: the molecule itself; experiment: AUC
AUC [2] = molecular target: the molecule itself; experiment: AUC; remark: listed apart in the source

B1: Legionella pneumophila subsp. pneumophila inosine-5'-monophosphate dehydrogenase (enzyme)
chain: MPLSIVQQSLTFDDVLLVPAHSTILPKDVSLKTKLTRAIHLNMPLISAAMDTVTEARLAIALAQEGGLGIIHKNMSIADQAEEVRRVKKFESGMVKDPISVTPDLTVKELLAVMTKYNFSGVPVVDGKHLVGIVTSRDIRFETNMNLTVAQVMTPKGRLVTVKEGASREEVRSLLHKHRIEKLLVVNENFELRGLITVKDIQKAKDNPYACKDSFEQLRVGAAVGVGEGTDERVAALVESGVDVIVVDTAHGHSQGVLNRVKWIKKNYPDVQVIGGNIATAAAARDLYEAGADAVKVGIGPGSICTTRIVTGVGIPQISAIANVAQELKGIIPVIADGGIRFSGDVCKALAAGADTVMLGSMFAGTEESPGEIELYQGRTYKNYRGMGSIGAMSLAQGSSDRYFQDASLGTEKLVPEGIEGRVPYKGPVQTIIHQLLGGLRSCMGYTGCATIEELHSKTEFVQVTNAGMRESHVHDVSITKQAPNYQVDN
notes: also called IMPDHlpp; class I IMPDH
stoichiometry N (SEC): ~8 | stoichiometry N (AUC [1]): 8

B2: Staphylococcus aureus inosine-5'-monophosphate dehydrogenase (enzyme, Staphylococcus aureus strain N315, UniProt P99106 1-488, looked up)
chain: MWESKFAKESLTFDDVLLIPAQSDILPKDVDLSVQLSDKVKLNIPVISAGMDTVTESKMAIAMARQGGLGVIHKNMGVEEQADEVQKVKRSENGVISNPFFLTPEESVYEAEALMGKYRISGVPIVDNKEDRNLVGILTNRDLRFIEDFSIKIVDVMTQENLITAPVNTTLEEAEKILQKHKIEKLPLVKDGRLEGLITIKDIEKVIEFPNAAKDEHGRLLVAAAIGISKDTDIRAQKLVEAGVDVLVIDTAHGHSKGVIDQVKHIKKTYPEITLVAGNVATAEATKDLFEAGADIVKVGIGPGSICTTRVVAGVGVPQITAIYDCATEARKHGKAIIADGGIKFSGDIIKALAAGGHAVMLGSLLAGTEESPGATEIFQGRQYKVYRGMGSLGAMEKGSNDRYFQEDKAPKKFVPEGIEGRTAYKGALQDTIYQLMGGVRAGMGYTGSHDLRELREEAQFTRMGPAGLAESHPHNIQITKESPNYSF
notes: also called IMPDHsa; class II IMPDH
stoichiometry N (SEC): ~4 | stoichiometry N (AUC [2]): 8 | stoichiometry N (AUC [1]): 4

B3: Pseudomonas aeruginosa inosine-5'-monophosphate dehydrogenase (enzyme, UniProt Q9HXM5 1-489, looked up)
chain: MLRISQEALTFDDVLLIPGYSEVLPKDVSLKTRLTRGIELNIPLVSAAMDTVTEARLAIAMAQEGGIGIIHKNMGIEQQAAEVRKVKKHETAIVRDPVTVTPSTKIIELLQMAREYGFSGFPVVEQGELVGIVTGRDLRVKPNAGDTVAAIMTPKDKLVTAREGTPLEEMKAKLYENRIEKMLVVDENFYLRGLVTFRDIEKAKTYPLASKDEQGRLRVGAAVGTGADTGERVAALVAAGVDVVVVDTAHGHSKGVIERVRWVKQTFPDVQVIGGNIATAEAAKALAEAGADAVKVGIGPGSICTTRIVAGVGVPQISAIANVAAALEGTGVPLIADGGIRFSGDLAKAMVAGAYCVMMGSMFAGTEEAPGEIELFQGRSYKSYRGMGSLGAMSGSQGSSDRYFQDASAGAEKLVPEGIEGRVPYKGALSAIVHQLMGGLRAAMGYTGSADIQQMRTQPQFVRITGAGMAESHVHDVQITKEAPNYRVG
notes: also called IMPDHpa; class I IMPDH
stoichiometry N (SEC): ~8 | stoichiometry N (AUC [2]): 8

B4: Neisseria meningitidis inosine-5'-monophosphate dehydrogenase (enzyme, Neisseria meningitidis strain FAM18, UniProt Q9JZB5 1-487, looked up)
chain: MRIVEKAYTFDDVLLVPAHSTVLPRDVKLQTKLTREITLNLPLLSAAMDTVTEARLAISMAQEGGIGIIHKNMPPEMQARAVSKVKRHESGVVKDPVTVAPTTLIREVLEMRAQRKRKMSGLPVVENGKVVGIVTNRDLRFENRVDLPVSAIMTPRERLVTVPEGTSIDEARELMHTHKVERVLVLNEKDELKGLITVKDILKTTEFPNANKDSEGRLRVGAAVGTGGDTEERVKALVEAGVDVIVVDTAHGHSQGVIDRVRWVKETYPHIQVIGGNIATAKAALDLVAAGADAVKVGIGPGSICTTRIVAGVGVPQLTAIHNVAEALKGTGVPLIADGGIRFSGDIAKALAAGAYSVMLGGMFAGTEEAPGEIELYQGRSYKSYRGMGSLGAMSQGSADRYFQDKTDSTDKYVPEGIEGRVPYKGPIVNIIHQLTGGLRSSMGYLGCANIAEMHEKAEFVEITSAGMSESHVHDVQITKEAPNYHR
notes: also called IMPDHnm; class I IMPDH
stoichiometry N (SEC): ~8 | stoichiometry N (AUC [1]): 8

B5: Burkholderia thailandensis inosine-5'-monophosphate dehydrogenase (enzyme, Burkholderia thailandensis strain E264, UniProt Q2SWW9 1-486, looked up)
chain: MRLIQKALTFDDVLLVPAFSDVLPRDTSLKTQLTRHISLNMPLVSAAMDTVTEGRLAIAMAQQGGVGIVHKNLTPVEQAREVAKVKRFESGVVRDPITVPPSMKVRDVIALSRQHGISGFPVLEGPKLVGIVTNRDLRFETRLDEPVKSIMTPRERLVTVAEGTPLAEAKALMHSHRLERVLVVNDAFELRGLMTVKDITKQTEHPEACKDEHGKLRVGAAVGVGADNEERVELLVQAGVDVIVVDTAHGHSKGVLERVRWVKQNFPKVEVIGGNIATAAAAKALVEYGADAVKVGIGPGSICTTRIVAGVGVPQISAIANVSDALRGTGVPCIADGGIRFSGDVSKALAAGANAVMMGSMFAGTEEAPGDVFLYQGRQYKSYRGMGSVGAMKDGAADRYFQDNSANIDKLVPEGIEGRVAYKGSVNAIIFQLIGGVRASMGYCGCKTIAEMHEKAEFVEITAAGMRESHVHDVQITKEAPNYHVD
notes: also called IMPDHbt; class II IMPDH
stoichiometry N (SEC): ~4 | stoichiometry N (AUC [2]): 8 | stoichiometry N (AUC [1]): 4
